From publication PMC4868535, “A G-protein activation cascade from Arl13B to Arl3 and implications for ciliary targeting of lipidated proteins” (eLife, 2015)
Blank lines part the entries; values can stand above or below the molecule they belong to.

Columns and labels:
CrArl13B 18-278 = biological target: T1, CrArl13B 18-278 (Chlamydomonas reinhardtii, UniProt A8INQ0); experiment: nucleotide loading (HPLC) and GEF activity of the loaded protein; type: binding; conditions: 5 mM MgCl2, pH 7.5, 20°C
T1 construct: gene ARL13; residues 18-278 (G-domain plus C-terminal helix), expressed in E. coli as GST fusion
T1 sequence (A8INQ0 18-278): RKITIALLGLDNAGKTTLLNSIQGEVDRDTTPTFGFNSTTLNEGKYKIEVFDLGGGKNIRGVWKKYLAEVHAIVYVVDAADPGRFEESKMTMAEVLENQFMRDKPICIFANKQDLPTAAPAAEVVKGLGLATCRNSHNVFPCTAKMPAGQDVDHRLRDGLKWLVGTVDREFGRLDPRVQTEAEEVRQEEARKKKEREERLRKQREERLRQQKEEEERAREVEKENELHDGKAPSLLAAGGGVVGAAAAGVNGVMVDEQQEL

[1] = biological target: T2, CrArl13B-CrArl3 complex (CrArl3 nucleotide site) (Chlamydomonas reinhardtii, UniProt A8ISN6); experiment: X-ray crystal structure […] Å; type: binding; conditions: Mg2+; nucleotide site of CrArl3; post-nucleotide-exchange state
T2 construct: gene ARL3; crystal complex, one in asymmetric unit; last 58 residues of CrArl13B not visible; from E. coli; with ADP-ribosylation factor-like protein 13B
T2 sequence (A8ISN6 2-177 limits assumed): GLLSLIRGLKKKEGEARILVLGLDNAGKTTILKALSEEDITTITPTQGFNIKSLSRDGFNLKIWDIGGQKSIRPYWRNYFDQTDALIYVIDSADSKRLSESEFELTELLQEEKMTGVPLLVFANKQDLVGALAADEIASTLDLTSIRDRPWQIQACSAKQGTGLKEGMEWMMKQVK
T2 sequence (A8INQ0 18-278 partner): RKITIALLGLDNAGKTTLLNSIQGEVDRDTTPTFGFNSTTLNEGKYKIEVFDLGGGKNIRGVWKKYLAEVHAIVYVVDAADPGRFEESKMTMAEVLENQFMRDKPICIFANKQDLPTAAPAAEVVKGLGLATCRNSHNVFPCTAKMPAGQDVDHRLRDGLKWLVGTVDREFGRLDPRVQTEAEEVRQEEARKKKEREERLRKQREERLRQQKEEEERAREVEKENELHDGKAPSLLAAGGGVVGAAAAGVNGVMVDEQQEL

[2] = biological target: T3, CrArl13B-CrArl3 complex (CrArl13B nucleotide site) (Chlamydomonas reinhardtii, UniProt A8INQ0); experiment: X-ray crystal structure […] Å; type: binding; conditions: Mg2+; nucleotide site of CrArl13B
T3 construct: gene ARL13; crystal complex, one in asymmetric unit; last 58 residues of CrArl13B not visible; from E. coli; with ADP-ribosylation factor-like protein 3
T3 sequence (A8INQ0 18-278): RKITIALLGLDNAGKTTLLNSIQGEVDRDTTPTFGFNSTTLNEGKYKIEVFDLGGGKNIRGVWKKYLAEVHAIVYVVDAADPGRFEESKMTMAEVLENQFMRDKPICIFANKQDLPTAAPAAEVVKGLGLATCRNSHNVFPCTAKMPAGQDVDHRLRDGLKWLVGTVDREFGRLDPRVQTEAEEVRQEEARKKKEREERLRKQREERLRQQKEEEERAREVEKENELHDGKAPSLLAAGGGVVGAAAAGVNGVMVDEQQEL
T3 sequence (A8ISN6 2-177 partner): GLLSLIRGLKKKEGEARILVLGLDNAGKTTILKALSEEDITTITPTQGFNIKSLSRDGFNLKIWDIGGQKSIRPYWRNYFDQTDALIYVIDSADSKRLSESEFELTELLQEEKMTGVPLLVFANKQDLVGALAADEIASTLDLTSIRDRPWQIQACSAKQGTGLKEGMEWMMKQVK

[3] = biological target: CrArl3 (Chlamydomonas reinhardtii)
[4] = biological target: CrArl3 D146R (Chlamydomonas reinhardtii)
[5] = biological target: CrArl3 D103R (Chlamydomonas reinhardtii)
[6] = biological target: CrArl3 (Chlamydomonas reinhardtii); remark: listed apart in the source
[7] = biological target: CrArl3 (Chlamydomonas reinhardtii); remark: listed apart in the source

Molecule: Nc1nc2c(ncn2[C@@H]2O[C@H](COP(=O)(O)OP(=O)(O)O)[C@@H](O)[C@H]2O)c(=O)[nH]1 [GDP]
nucleotide loading (HPLC) and GEF activity of the loaded protein (CrArl13B 18-278; GDP-bound state compared by GEF activity on CrArl3·mantGDP): CrArl13B preloaded with GDP, GTP, or GppNHp was used to analyze the exchange activity

Molecule: Nc1nc2c(ncn2[C@@H]2O[C@H](COP(=O)(O)OP(=O)(O)OP(=O)(O)O)[C@@H](O)[C@H]2O)c(=O)[nH]1 [GTP]
nucleotide loading (HPLC) and GEF activity of the loaded protein (CrArl13B 18-278; GTP-bound state compared by GEF activity on CrArl3·mantGDP): CrArl13B preloaded with GDP, GTP, or GppNHp was used to analyze the exchange activity

Molecule: Nc1nc2c(ncn2[C@@H]2O[C@H](COP(=O)(O)OP(=O)(O)NP(=O)(O)O)[C@@H](O)[C@H]2O)c(=O)[nH]1 [GppNHp]
X-ray crystal structure 2.5 Å [1]: GppNHp was clearly visible in both active sites | X-ray crystal structure 2.5 Å [2]: GppNHp was clearly visible in both active sites

Kobs of nucleotide release from 500 nM CrArl3·mantGppNHp with 5 µM CrArl13B wt (GEF assay, switch interface mutants) [3]: 0.0091 s⁻¹ | Kobs of nucleotide release from CrArl3 wt with 5 µM CrArl13B 18-278 (GEF assay, deletion constructs) [3]: 0.0066 s⁻¹ | Kobs of nucleotide release from CrArl3 wt·mantGppNHp with 5 µM CrArl13B wt (GEF assay, charge reversal interface mutants) [3]: 0.0085 s⁻¹ | Kobs of nucleotide release from CrArl3 D146R·mantGppNHp with 5 µM CrArl13B wt (GEF assay) [4]: 0.00014 s⁻¹ | Kobs of nucleotide release from CrArl3 D103R·mantGppNHp with 5 µM CrArl13B wt (GEF assay) [5]: 0.00014 s⁻¹ | Kobs of mantGDP release from 500 nM CrArl3 with 5 µM CrArl13B·GDP (GEF assay) [6]: 0.0009 s⁻¹ | Kobs of mantGDP release from 500 nM CrArl3 with 5 µM CrArl13B·GTP (GEF assay) [6]: 0.006 s⁻¹ | Kobs of mantGDP release from 500 nM CrArl3 with 5 µM CrArl13B·GppNHp (GEF assay) [6]: 0.0078 s⁻¹ | KM of the GEF reaction (kobs of mantGDP release from 500 nM CrArl3 against GEF concentration) for CrArl13B·GDP [7]: 155 µM | KM of the GEF reaction (kobs of mantGDP release from 500 nM CrArl3 against GEF concentration) for CrArl13B·GTP [7]: 1.1 µM
B1: CrArl13B^18-–278 (domain or fragment)
chain: RKITIALLGLDNAGKTTLLNSIQGEVDRDTTPTFGFNSTTLNEGKYKIEVFDLGGGKNIRGVWKKYLAEVHAIVYVVDAADPGRFEESKMTMAEVLENQFMRDKPICIFANKQDLPTAAPAAEVVKGLGLATCRNSHNVFPCTAKMPAGQDVDHRLRDGLKWLVGTVDREFGRLDPRVQTEAEEVRQEEARKKKEREERLRKQREERLRQQKEEEERAREVEKENELHDGKAPSLLAAGGGVVGAAAAGVNGVMVDEQQEL

Kobs of nucleotide release from 500 nM CrArl3·mantGppNHp with 5 µM CrArl13B D46A (GEF assay) [3]: 0.0041 s⁻¹
B2: CrArl13B D46A (18-278) (domain or fragment)
chain: RKITIALLGLDNAGKTTLLNSIQGEVDRATTPTFGFNSTTLNEGKYKIEVFDLGGGKNIRGVWKKYLAEVHAIVYVVDAADPGRFEESKMTMAEVLENQFMRDKPICIFANKQDLPTAAPAAEVVKGLGLATCRNSHNVFPCTAKMPAGQDVDHRLRDGLKWLVGTVDREFGRLDPRVQTEAEEVRQEEARKKKEREERLRKQREERLRQQKEEEERAREVEKENELHDGKAPSLLAAGGGVVGAAAAGVNGVMVDEQQEL

Kobs of nucleotide release from 500 nM CrArl3·mantGppNHp with 5 µM CrArl13B F53A (GEF assay) [3]: 0.00042 s⁻¹
B3: CrArl13B^F53A (18-278) (domain or fragment)
chain: RKITIALLGLDNAGKTTLLNSIQGEVDRDTTPTFGANSTTLNEGKYKIEVFDLGGGKNIRGVWKKYLAEVHAIVYVVDAADPGRFEESKMTMAEVLENQFMRDKPICIFANKQDLPTAAPAAEVVKGLGLATCRNSHNVFPCTAKMPAGQDVDHRLRDGLKWLVGTVDREFGRLDPRVQTEAEEVRQEEARKKKEREERLRKQREERLRQQKEEEERAREVEKENELHDGKAPSLLAAGGGVVGAAAAGVNGVMVDEQQEL

Kobs of nucleotide release from 500 nM CrArl3·mantGppNHp with 5 µM CrArl13B N75A (GEF assay) [3]: 0.0044 s⁻¹
B4: CrArl13B N75A (18-278) (domain or fragment)
chain: RKITIALLGLDNAGKTTLLNSIQGEVDRDTTPTFGFNSTTLNEGKYKIEVFDLGGGKAIRGVWKKYLAEVHAIVYVVDAADPGRFEESKMTMAEVLENQFMRDKPICIFANKQDLPTAAPAAEVVKGLGLATCRNSHNVFPCTAKMPAGQDVDHRLRDGLKWLVGTVDREFGRLDPRVQTEAEEVRQEEARKKKEREERLRKQREERLRQQKEEEERAREVEKENELHDGKAPSLLAAGGGVVGAAAAGVNGVMVDEQQEL
